Among the data in patent publication US5843888 are removal of the N-terminal methionine, electrospray mass spectrometry of the purified r Hb values, retold here.

For test [1], the target named is α chain (α96Val→Trp) with the N-terminal methionine, as expressed in E. coli before processing (human).
For test [2], the target named is β chain of human hemoglobin with the N-terminal methionine, as expressed in E. coli before processing (human).

On to “E. coli methionine aminopeptidase (from UniProt P0AE18) (enzyme)”, for which the values for the removal of the N-terminal methionine, electrospray mass spectrometry of the purified r Hb in test [1] and in test [2] were more than 98% and 90%, respectively.
